The target in test [1] is T1, native PRLR expressing T47D cells (Homo sapiens, UniProt P16471).
T1 construct: a native PRLR expressing cell line (T47D); endogenous in cells; host or cells: T47D
T1 sequence (P16471 25-622): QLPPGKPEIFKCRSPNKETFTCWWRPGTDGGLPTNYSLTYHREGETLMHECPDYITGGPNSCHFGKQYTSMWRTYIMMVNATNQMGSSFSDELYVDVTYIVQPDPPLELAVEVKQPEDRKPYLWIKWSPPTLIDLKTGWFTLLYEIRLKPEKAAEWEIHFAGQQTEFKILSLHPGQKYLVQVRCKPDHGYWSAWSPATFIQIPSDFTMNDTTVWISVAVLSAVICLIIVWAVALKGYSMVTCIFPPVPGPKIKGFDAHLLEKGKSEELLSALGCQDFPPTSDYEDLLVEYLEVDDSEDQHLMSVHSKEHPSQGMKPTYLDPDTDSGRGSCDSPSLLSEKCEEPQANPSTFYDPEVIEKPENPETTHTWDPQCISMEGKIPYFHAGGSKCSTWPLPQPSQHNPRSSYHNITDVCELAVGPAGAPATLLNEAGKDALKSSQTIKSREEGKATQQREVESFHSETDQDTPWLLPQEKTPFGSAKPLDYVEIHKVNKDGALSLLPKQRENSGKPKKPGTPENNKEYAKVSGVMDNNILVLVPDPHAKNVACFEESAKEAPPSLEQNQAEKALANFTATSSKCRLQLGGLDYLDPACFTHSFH
Put plainly: FACS cell surface binding. The gist of the method: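 Binding expressed as mean fluorescence fold change above isotype background, measured by FACS after 30 min on ice with 10 μg/ml antibody and PE-conjugated anti-human detection. T47D, which natively expresses PRLR, tested with engineered HEK293/hPRLR and non-expressing HEK293 cells.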

The target in test [2] is T2, mouse PRLR on HEK293/mPRLR cells (Mus musculus, UniProt Q08501).
T2 construct: HA; expressed in transfected cells; host or cells: HEK293
T2 sequence (Q08501 20-608): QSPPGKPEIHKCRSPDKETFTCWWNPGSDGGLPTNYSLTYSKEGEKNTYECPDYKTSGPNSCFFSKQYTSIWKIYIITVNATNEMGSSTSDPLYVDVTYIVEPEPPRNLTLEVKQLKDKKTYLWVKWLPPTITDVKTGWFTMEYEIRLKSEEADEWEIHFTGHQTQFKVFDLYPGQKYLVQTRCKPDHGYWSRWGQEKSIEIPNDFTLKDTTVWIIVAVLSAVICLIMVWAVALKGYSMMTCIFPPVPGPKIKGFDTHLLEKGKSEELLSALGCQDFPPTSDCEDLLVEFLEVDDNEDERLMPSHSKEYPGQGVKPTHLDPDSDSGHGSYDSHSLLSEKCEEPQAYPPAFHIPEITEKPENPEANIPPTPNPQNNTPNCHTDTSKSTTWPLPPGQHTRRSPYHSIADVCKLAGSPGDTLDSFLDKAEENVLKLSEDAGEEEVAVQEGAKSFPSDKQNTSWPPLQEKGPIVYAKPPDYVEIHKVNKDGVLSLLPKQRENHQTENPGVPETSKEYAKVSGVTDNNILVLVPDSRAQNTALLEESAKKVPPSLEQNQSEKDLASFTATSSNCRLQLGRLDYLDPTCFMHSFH
Nature of the test: FACS cell surface binding. An outline of the steps: (§1)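 Flow cytometry: 1×10^5 cells/sample; primary Ab 10 μg/ml, 30 min on ice; 2 washes; PE anti-human 2° 10 μg/ml, 30 min on ice. Cells were HEK293 stably expressing HA-tagged PRLR of the given species, or untransfected HEK293. Readout was MFI fold over isotype.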

The target in test [3] is T3, human PRLR on HEK293/hPRLR cells (Homo sapiens, UniProt P16471).
T3 construct: HA; expressed in transfected cells; host or cells: HEK293
T3 sequence (P16471 25-622): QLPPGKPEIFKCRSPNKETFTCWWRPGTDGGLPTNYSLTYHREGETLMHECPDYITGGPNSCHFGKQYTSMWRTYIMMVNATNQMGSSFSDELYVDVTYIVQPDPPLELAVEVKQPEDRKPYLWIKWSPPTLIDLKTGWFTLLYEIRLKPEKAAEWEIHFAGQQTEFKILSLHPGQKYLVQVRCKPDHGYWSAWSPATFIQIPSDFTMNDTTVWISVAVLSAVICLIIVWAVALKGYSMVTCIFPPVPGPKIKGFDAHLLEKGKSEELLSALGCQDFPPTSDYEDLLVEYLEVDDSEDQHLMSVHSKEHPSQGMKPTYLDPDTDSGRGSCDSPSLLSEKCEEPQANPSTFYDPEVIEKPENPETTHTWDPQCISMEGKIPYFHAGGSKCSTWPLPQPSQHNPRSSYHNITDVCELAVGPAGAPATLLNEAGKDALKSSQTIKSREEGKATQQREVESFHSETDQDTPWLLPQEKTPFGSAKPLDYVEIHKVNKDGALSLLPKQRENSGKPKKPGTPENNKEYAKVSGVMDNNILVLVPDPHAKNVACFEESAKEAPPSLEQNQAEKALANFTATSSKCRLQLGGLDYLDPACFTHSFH
Nature of the test: FACS cell surface binding. An outline of the steps: as §1

Test [4] concerns the target T4, monkey PRLR on HEK293/mfPRLR cells (Macaca fascicularis, UniProt A0A2K5WXK1).
T4 construct: HA; expressed in transfected cells; host or cells: HEK293
T4 sequence (A0A2K5WXK1 25-619): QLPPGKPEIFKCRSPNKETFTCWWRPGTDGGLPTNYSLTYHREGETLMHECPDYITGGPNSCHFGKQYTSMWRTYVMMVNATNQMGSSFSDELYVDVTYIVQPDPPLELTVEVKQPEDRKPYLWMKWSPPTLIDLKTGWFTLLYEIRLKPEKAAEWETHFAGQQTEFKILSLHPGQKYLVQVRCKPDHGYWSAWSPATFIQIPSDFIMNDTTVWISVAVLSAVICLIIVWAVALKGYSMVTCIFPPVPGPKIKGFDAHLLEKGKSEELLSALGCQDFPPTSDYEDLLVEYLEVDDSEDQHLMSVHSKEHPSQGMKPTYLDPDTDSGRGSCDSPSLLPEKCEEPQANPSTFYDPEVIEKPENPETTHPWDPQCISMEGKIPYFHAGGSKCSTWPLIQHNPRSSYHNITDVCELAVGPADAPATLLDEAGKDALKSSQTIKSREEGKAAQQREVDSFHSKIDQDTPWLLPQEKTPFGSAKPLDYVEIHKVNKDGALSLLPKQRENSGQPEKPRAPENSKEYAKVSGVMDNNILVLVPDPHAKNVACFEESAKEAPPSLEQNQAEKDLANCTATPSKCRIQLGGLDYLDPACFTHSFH
Put plainly: FACS cell surface binding. The gist of the method:
as §1

Test [5] deals with T5, dimeric human PRLR (hPRLR.mFc; SEQ ID NO:402) (Homo sapiens, UniProt P16471).
T5 construct: dimeric (hPRLR.mFc)
T5 sequence (P16471 with tags, fused parts or gaps): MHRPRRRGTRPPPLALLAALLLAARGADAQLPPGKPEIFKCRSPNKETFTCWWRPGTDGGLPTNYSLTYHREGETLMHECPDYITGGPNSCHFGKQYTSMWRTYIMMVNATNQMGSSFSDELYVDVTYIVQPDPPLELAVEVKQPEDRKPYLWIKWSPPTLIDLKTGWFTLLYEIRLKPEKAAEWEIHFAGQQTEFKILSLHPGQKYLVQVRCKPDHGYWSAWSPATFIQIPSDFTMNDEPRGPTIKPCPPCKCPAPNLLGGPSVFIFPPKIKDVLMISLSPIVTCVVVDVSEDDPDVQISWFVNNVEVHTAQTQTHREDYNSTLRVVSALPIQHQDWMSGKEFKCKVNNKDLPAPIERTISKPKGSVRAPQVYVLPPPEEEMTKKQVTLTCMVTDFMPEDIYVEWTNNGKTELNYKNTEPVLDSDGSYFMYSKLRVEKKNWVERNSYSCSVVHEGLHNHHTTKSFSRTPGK
Put plainly: Surface plasmon resonance (Biacore T200), antibody-capture format. The format is binding. Conditions: analyte hPRLR.mFc. The gist of the method: (§2)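 Antibodies (human IgG1 Fc) captured on an anti-human Fc sensor surface; soluble monomeric (.mmh) or dimeric (.mFc) PRLR injected as analyte. ka and kd obtained by fitting to a 1:1 binding model.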
For orientation: SPR reads the build-up and loss of mass on a sensor chip optically.

Test [6] addresses T6, monomeric human PRLR (hPRLR.mmh; SEQ ID NO:401) (Homo sapiens, UniProt P16471).
T6 construct: soluble monomeric (hPRLR.mmh); mmh (myc-myc-hexahistidine) (C)
The description is as above. The format is binding. Conditions: analyte hPRLR.mmh. The gist of the method: as §2

The subject of test [7] is Macaca fascicularis PRLR (mfPRLR.mmh; SEQ ID NO:403). The test is described as above. Format: binding. Conditions: analyte mfPRLR.mmh. An outline of the steps: as §2
For a further test, the system named is HEK293 parental cells. Nature of the test: FACS cell surface binding. Set-up: species or system human. The gist of the method:
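HEK293 cells stably transfected with HA-tagged human, cynomolgus or mouse PRLR (G418-selected), or parental HEK293, were stained with 10 μg/ml antibody for 30 min on ice. Binding was then detected with 10 μg/ml PE anti-human secondary for 30 min on ice, and MFI was expressed as fold over isotype control.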

T6 sequence (P16471 with tags, fused parts or gaps): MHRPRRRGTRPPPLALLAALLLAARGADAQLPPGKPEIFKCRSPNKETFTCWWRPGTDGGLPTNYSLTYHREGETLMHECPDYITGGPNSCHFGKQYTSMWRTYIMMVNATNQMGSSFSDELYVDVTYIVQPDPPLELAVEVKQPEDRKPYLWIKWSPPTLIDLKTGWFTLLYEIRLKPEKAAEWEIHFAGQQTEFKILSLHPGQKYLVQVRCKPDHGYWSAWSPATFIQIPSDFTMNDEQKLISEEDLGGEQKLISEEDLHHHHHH
Chain of Macaca fascicularis PRLR (mfPRLR.mmh; SEQ ID NO:403) (as listed by the source): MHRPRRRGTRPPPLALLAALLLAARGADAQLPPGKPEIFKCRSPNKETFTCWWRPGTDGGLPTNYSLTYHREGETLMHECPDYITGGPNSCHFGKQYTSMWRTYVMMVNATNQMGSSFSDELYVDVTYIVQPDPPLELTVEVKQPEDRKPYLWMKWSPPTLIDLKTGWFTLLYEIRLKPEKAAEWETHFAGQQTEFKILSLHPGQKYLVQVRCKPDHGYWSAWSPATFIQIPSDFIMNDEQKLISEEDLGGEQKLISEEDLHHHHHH

B1: H1H6800P: fully human anti-PRLR antibody, human IgG1 Fc; HCVR/LCVR SEQ ID NOs 194/202 (antibody, V domains shown)
VH: EVQLVESGGGLVQPGRSLRLSCAASGFTFDGYAMHWVRQGPGKGLEWVSGISWYSDTLGYADSVKGRFTISRDNAKNSLYLQMNSLRTEDTAFYYCAKISSSGWAFDYWGQGTLVTVSS
VL: EIVLTQSPGTLSLSPGERATLSCRASHSVSSAYLAWYQQKPGQTPRLLIYGTSSRATGIPDRFSGSGSGTDFTLTISRLEPEDFAVYYCQQYGSSPLFTFGPGTKVDIK
For B1, the “FACS Cell Binding” value in test [1] is recorded as 41 Fold Above Background; in test [2], 1 Fold Above Background; in test [3], 35 Fold Above Background; in test [4] it was 29 Fold Above Background; in the test with HEK293 parental cells, 1 Fold Above Background. Also, the ka came out at 473000 M/s in test [5] (25° C.); 644000 M/s in test [5] (37° C.); 421000 M/s in test [6] (25° C.); 808000 M/s in test [6] (37° C.); 303000 M/s in test [7] (25° C.); 439000 M/s in test [7] (37° C.). Moreover, the kd was determined as 8.69e-05 s⁻¹ in test [5] (25° C.); 0.000147 s⁻¹ in test [5] (37° C.); 0.000409 s⁻¹ in test [6] (25° C.); 0.00119 s⁻¹ in test [6] (37° C.); 0.00038 s⁻¹ in test [7] (25° C.); 0.00109 s⁻¹ in test [7] (37° C.).

B2: H1H6801P: fully human anti-PRLR antibody, human IgG1 Fc; HCVR/LCVR SEQ ID NOs 210/218 (antibody, V domains shown)
VH: QVQLQQSGPGLVKPSQTLSLTCVISGDSVSSNTAWNWVRQSPSRGLEWLGRTYYRSKWYNDYAVSVKSRITINPDTSKNQFSLLMNSVTPEDTAVYYCARVVRGLNYFDYWGQGTLVTVSS
VL: DIVMTQSPDSLAVSLGERATINCKSSQSVLYNSNNKNYLAWYQQKPGQPPKLLIYWSSSRESGVPDRFSGSGSGTDFTLTISGLQAEDVAIYYCQQYSTIPYTFGQGTKLEIK
Take B2: the “FACS Cell Binding” value in test [1] is recorded as 45 Fold Above Background; in test [2] it was 56 Fold Above Background; in test [3] it was 47 Fold Above Background; in test [4] it was 88 Fold Above Background; in the test on HEK293 parental cells, 7 Fold Above Background. The ka in test [5] (25° C.) turned out to be 675000 M/s; in test [5] (37° C.), 793000 M/s; in test [6] (25° C.) it was 846000 M/s; in test [6] (37° C.), 951000 M/s; in test [7] (25° C.) it was 657000 M/s; in test [7] (37° C.), 711000 M/s. Moreover, the kd in test [5] (25° C.) stood at 0.000109 s⁻¹; in test [5] (37° C.), 0.000221 s⁻¹; in test [6] (25° C.) it was 0.000756 s⁻¹; in test [6] (37° C.), 0.00441 s⁻¹; in test [7] (25° C.), 0.00123 s⁻¹; in test [7] (37° C.), 0.00771 s⁻¹.

The values are drawn from patent publication US10925971B2, “Methods of treating PRLR positive breast cancer” (Regeneron Pharmaceuticals, Inc., priority 2016, dated 2021).
